Laboratory results as given in patent US20150197559A1 (University of California, published 2015).
Where a chain is given by its changes, count along the chain named.

Assays:
BoNT/A1 (Hall hyper) [1] = biological target: T1, BoNT/A1 (Hall hyper) (Clostridium botulinum, UniProt P0DPI0 2-1296); assay: flow cytometry, yeast-displayed scFv, soluble toxin
BoNT/A1 (Hall hyper) [2] = biological target: T1, BoNT/A1 (Hall hyper); assay: as above; remark: listed apart in the source
BoNT/A1 (Hall hyper) [3] = biological target: T1, BoNT/A1 (Hall hyper); assay: flow cytometry, yeast-displayed scFv, soluble BoNT/A1
BoNT/A1 (Hall hyper) [4] = biological target: T1, BoNT/A1 (Hall hyper)
BoNT/A1 (Hall hyper) [5] = biological target: T1, BoNT/A1 (Hall hyper); assay: KinExA flow fluorimetry, IgG in solution
BoNT/B2 = BoNT/B2 (Clostridium botulinum); assay: flow cytometry, yeast-displayed scFv, soluble toxin
BoNT/B3 = BoNT/B3 (Clostridium botulinum); assay: as above
BoNT/B4 = BoNT/B4 (Clostridium botulinum); assay: as above
BoNT/B1 [6] = biological target: T2, BoNT/B1 (Clostridium botulinum, UniProt P10844 2-1291); assay: as above
T2 sequence: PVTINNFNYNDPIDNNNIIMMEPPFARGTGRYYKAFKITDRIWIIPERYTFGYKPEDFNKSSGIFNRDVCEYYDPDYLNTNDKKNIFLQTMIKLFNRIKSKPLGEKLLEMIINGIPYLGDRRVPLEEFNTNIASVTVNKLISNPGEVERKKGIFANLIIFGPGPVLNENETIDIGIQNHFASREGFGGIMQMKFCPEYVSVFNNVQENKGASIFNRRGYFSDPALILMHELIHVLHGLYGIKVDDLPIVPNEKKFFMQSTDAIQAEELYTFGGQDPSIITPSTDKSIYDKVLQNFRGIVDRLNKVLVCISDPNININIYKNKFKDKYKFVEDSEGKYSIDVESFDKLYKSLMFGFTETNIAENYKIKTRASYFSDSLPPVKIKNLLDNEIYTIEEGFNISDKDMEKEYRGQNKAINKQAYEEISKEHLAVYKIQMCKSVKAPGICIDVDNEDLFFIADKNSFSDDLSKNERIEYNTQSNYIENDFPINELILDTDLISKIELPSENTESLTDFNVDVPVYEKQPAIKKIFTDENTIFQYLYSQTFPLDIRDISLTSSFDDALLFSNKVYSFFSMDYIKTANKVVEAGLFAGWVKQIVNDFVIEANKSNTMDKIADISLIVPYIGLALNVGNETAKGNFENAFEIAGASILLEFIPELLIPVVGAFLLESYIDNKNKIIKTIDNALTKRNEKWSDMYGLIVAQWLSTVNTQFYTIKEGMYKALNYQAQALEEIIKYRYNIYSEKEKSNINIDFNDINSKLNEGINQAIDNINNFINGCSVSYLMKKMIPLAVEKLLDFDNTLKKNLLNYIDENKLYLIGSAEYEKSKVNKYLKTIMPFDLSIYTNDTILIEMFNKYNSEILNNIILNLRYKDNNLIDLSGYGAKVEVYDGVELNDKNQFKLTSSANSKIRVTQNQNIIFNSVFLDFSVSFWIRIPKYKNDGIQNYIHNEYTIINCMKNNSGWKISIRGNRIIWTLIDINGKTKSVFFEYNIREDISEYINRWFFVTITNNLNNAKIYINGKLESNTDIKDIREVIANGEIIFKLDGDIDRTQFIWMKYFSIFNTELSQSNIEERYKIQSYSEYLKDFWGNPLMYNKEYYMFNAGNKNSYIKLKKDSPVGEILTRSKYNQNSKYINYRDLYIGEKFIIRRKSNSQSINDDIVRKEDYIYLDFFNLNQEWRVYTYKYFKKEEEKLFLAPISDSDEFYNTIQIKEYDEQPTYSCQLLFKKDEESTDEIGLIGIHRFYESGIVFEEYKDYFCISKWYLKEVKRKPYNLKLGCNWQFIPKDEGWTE

BoNT/B1 [7] = biological target: T2, BoNT/B1; assay: flow cytometry, yeast-displayed parental scFv
BoNT/B1 [8] = biological target: T2, BoNT/B1; assay: flow cytometry, yeast-displayed scFv, soluble toxin; remark: listed apart in the source
BoNT/A1 (Hall hyper) [9] = biological target: T1, BoNT/A1 (Hall hyper); assay: flow cytometry, yeast-displayed Fab against yeast-displayed scFv
BoNT/A1 (Hall hyper) [10] = biological target: T1, BoNT/A1 (Hall hyper); assay: flow cytometry, yeast-displayed Fab, soluble toxin
BoNT/B1 [11] = biological target: T2, BoNT/B1; assay: flow cytometry, yeast-displayed Fab, soluble toxin
BoNT/B1 [12] = biological target: T2, BoNT/B1; assay: yeast-displayed Fab against parental B6 scFv, flow cytometry
BoNT/B1 [13] = biological target: T2, BoNT/B1; assay: flow cytometry, yeast-displayed Fab, soluble toxin; remark: listed apart in the source
BoNT/B1 [14] = biological target: T2, BoNT/B1; assay: KinExA flow fluorimetry, IgG in solution
BoNT/B1 [15] = biological target: T2, BoNT/B1
BoNT/B1 [16] = biological target: T2, BoNT/B1; assay: yeast-displayed Fab against parental B11 scFv, flow cytometry
BoNT/B1 [17] = biological target: T2, BoNT/B1; assay: flow cytometry, yeast-displayed Fab against yeast-displayed scFv

B1: ING2 scFv (scFv, V domains shown)
VH: QVQLVQSGAEVKKPGSSVKVSCKASGDTFNRNAIAWVRQAPGQGLEWMGRIIPNLRTTHYAQKFQGRVAITADKHTNTVFMELSSLRSEDTAVYYCARDPYYYSYMDVWGKGTTVTVSS
VL: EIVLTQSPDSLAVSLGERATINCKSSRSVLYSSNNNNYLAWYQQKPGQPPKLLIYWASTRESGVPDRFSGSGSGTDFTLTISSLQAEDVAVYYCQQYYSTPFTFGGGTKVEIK
Kd (BoNT/A1 (Hall hyper) [1]): 0.238 nM | Kd (BoNT/A1 (Hall hyper) [2]): 0.24 nM | Kd (BoNT/A1 (Hall hyper) [3]): 0.25 nM

B2: ING2 IgG (antibody, V domains shown)
VH: B1 VH
VL: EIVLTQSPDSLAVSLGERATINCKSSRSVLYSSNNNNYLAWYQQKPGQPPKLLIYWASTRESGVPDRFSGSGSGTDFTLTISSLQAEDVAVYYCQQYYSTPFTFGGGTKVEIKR
fold increase in affinity, IgG against parental scFv (BoNT/A1 (Hall hyper) [4]): 1.5 to 25 fold | Kd (BoNT/A1 (Hall hyper) [5]): 0.00957 nM

B3: 2B29 scFv (scFv, V domains shown)
VH: QVQLQESGPGLVKPSETLSLTCSVSGGSINSGTYYWTWIRQHPGKGLEWIGYIYYSGTTYYNPSLKSRVSMSVDTSKNLFSLKMNSVTAADTALYYCARGNPQYDTSGSYTGLYFDFWGQGTLVTVSS
VL: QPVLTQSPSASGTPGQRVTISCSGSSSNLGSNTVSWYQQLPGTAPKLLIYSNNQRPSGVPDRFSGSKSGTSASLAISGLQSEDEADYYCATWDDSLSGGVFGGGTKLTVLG
Kd (BoNT/B2): 1.02 nM | Kd (BoNT/B3): 1.61 nM | Kd (BoNT/B4): 1.29 nM | Kd (BoNT/B1 [6]): 1.11 nM

B4: B11 scFv (scFv)
scFv: QVQLLQSAGGVVQPGRSLRLSCAASGFIFRTYGMHWVRQAPGKGLEWVAFVSSDGNNKFYSDSVKGRFTIPRDNAKNTLYLQMNSLETEDTAVYYCAKDRYPIDCSGGSCFSYGMDVWGQGTTVTVSSGGGGSGGGGSGGGGSDIVMTQSPSTLSASVGDRVTVTCRASQSINSWLAWYQQKPGKAPKLLIYEASSLESGVPSRFSGSGSGTEFTLTISSLQPDDFATYYCQQYDSYWLTFGGGTKVEIK
Kd (BoNT/B1 [7]): 2.62 nM | Kd (BoNT/B1 [8]): 2.62 nM

B5: 1B11 scFv (scFv)
chain: B4 scFv
Kd (BoNT/B3): 4.43 nM | Kd (BoNT/B1 [6]): 2.6 nM

B6: 2B27 scFv (scFv, V domains shown)
VH: EVQLQESGPGLVKPSETLSVTCAVSGGSISSSNYSWAWIRQPPGKGLEWIGTMYYSGSTHYHPSLKSRVTISVDTSKSQLSLKLSSVTAADTAVYYCARRRLLGPSPYYFDYWGQGTLVTVSS
VL: QSVVTQPPSVSGAPGQRVTISCSGSSSNIGAGYDVHWYQQLPGTAPKLLIYGNNNRPSGVPDRFSGSKSGTSASLAITGLQAEDEADYYCQSYDSSLSAYVFGTGTKLTVLG
Kd (BoNT/B2): 0.56 nM | Kd (BoNT/B3): 2.32 nM | Kd (BoNT/B4): 0.77 nM | Kd (BoNT/B1 [6]): 1.9 nM

B7: ING1 IgG (antibody, V domains shown)
VH: QVQLQQSGGGLVQPGGSLRLSCAASGFTFSNYAMTWVRQAPGKGLEWVSSISVGGSDTYYADSVKGRFTVSRDNSKNTLLLQMNSLRAEDTAVYYCAKVRTKYCSSLSCFAGFDSWGQGTRVTVSS
VL: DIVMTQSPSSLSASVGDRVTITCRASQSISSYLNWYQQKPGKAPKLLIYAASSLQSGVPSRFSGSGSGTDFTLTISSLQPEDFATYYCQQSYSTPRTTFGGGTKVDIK
Kd (BoNT/A1 (Hall hyper) [5]): 0.314 nM

B8: ING1 Fab (Fab, V domains shown)
VH: B7 VH
VL: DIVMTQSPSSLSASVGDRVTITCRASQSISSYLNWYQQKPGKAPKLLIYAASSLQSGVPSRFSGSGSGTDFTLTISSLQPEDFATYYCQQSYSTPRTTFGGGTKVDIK
fold lower affinity than the scFv (BoNT/A1 (Hall hyper) [9]): 3.9 fold | Kd (BoNT/A1 (Hall hyper) [10]): 20.6 nM

B9: B6.1 Fab (Fab, V domains shown)
VH: QVQLVQSGAEVKKPGESLVISCKASGDKDTFTSFWIAWVRQMPGKGLEWMGIIYAGDSDTRYSPSFQGHVNISVDRSTNTAYLQWSSLKASDTAMYYCARHDSRYKYFYFGMDVWGQGTTVTVSS
VL: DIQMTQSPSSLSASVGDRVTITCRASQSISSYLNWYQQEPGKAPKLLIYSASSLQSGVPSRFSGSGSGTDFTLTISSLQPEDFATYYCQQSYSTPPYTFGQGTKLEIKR
Kd (BoNT/B1 [11]): 0.286 nM | KD wild type/KD matured (BoNT/B1 [12]): 9 fold | Kd (BoNT/B1 [13]): 0.286 nM

B10: B6.1 IgG (antibody, V domains shown)
VH: B9 VH
VL: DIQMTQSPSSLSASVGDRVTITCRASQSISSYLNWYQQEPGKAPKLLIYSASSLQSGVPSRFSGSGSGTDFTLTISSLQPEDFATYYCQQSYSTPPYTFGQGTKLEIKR
Kd (BoNT/B1 [14]): 0.00682 nM | fold increase in affinity, IgG against yeast displayed Fab (BoNT/B1 [15]): 42 fold

B11: B6 scFv (scFv)
scFv: QVQLVQSGAEVKKPGESLVISCKASGDKDTFTSFWIAWVRQMPGKGLEWMGIIYAGDSDTRYSPSFQGHVNISVDRSTNTAYLQWSSLKASDTAMYYCARHDSRYKYFYFGMDVWGQGTTVTVSSGGGGSGGGGSGGGGSDVVMTQSPSSLSASVGDRITITCQAGQDISNFLNWYQQKPGKAPKLLIRDASNLETGVPSRFSGGGSGTHFTFTISSLHPEDIATYFCQQYDNLPYTFGQGTKLEIK
Kd (BoNT/B1 [7]): 2.71 nM | Kd (BoNT/B1 [8]): 2.71 nM

B12: B11E8 Fab (Fab, V domains shown)
VH: EVQLVQSGGGVVQPGRSLRLSCAASGFIFRTYGMHWVRQAPGKGLEWVAFVSSDGNNKFYSDSVKGRFTISRDNAKNTLYLQMNSLETEDTAMYYCAKDRYPIDCSGGSCFSYGMDVWGQGTTVTVSS
VL: EIVLTQSPATLSVSPGERATLSCRASQSVSKFLAWYQQKRGQAPRLLIYGASTRATGIPARFSGSGSGTEFALTISSLQSEDFADYYCQQYDNWPITFGQGTRLEIKR
KD wild type/KD matured (BoNT/B1 [16]): 32 fold | Kd (BoNT/B1 [11]): 0.081 nM

B13: B11 Fab (Fab, V domains shown)
VH: B12 VH with E1Q, V5L, G8A, S71P, M93V
VL: DIVMTQSPSTLSASVGDRVTVTCRASQSINSWLAWYQQKPGKAPKLLIYEASSLESGVPSRFSGSGSGTEFTLTISSLQPDDFATYYCQQYDSYWLTFGGGTKVEIKR
fold lower affinity than the scFv (BoNT/B1 [17]): 2.5 fold

B14: B11E8 IgG (antibody, V domains shown)
VH: B12 VH
VL: B12 VL
Kd (BoNT/B1 [14]): 0.00659 nM | fold increase in affinity, IgG against yeast displayed Fab (BoNT/B1 [15]): 4.85 fold
